In article PMC5056641 (The Biochemical journal, 2014):

Columns and labels:
[1] = biological target: His-CLK1 (Cdc2-like kinase 1, mouse) (mouse, UniProt P22518 1-483); experiment: pull-down
[2] = biological target: GST-SRSF1 (human, UniProt Q07955 1-248); experiment: pull-down
GST-SRSF1, sequence (Q07955 whole entry): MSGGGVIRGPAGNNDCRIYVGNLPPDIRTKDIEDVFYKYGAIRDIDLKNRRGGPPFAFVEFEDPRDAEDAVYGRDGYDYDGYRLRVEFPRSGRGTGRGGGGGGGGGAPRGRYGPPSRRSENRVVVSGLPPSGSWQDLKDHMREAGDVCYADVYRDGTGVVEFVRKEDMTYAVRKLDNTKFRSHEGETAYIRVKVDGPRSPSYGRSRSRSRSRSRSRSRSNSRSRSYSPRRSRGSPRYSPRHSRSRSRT

binding result [1] | binding result [2] | Binder
binds | – | GST-N (CLK1 residues 1-160) (domain or fragment, mouse, UniProt P22518 1-160, looked up) MRHSKRTYCPDWDERDWDYGTWRSSSSHKRKKRSHSSAREQKRCRYDHSKTTDSYYLESRSINEKAYHSRRYVDEYRNDYMGYEPGHPYGEPGSRYQMHSSKSSGRSGRSSYKSKHRSRHHTSQHHSHGKSHRRKRSRSVEDDEEGHLICQSGDVLSARY
– | binds | His-N (CLK1 residues 1-160) (domain or fragment, mouse, UniProt P22518 1-160, looked up) MRHSKRTYCPDWDERDWDYGTWRSSSSHKRKKRSHSSAREQKRCRYDHSKTTDSYYLESRSINEKAYHSRRYVDEYRNDYMGYEPGHPYGEPGSRYQMHSSKSSGRSGRSSYKSKHRSRHHTSQHHSHGKSHRRKRSRSVEDDEEGHLICQSGDVLSARY
